Test results taken from publication doi:10.1101/2025.08.26.672026 (bioRxiv, 2025).

Biological target: the molecule itself
Assay: negative stain EM

B1: RPS2^ΔN26 (domain or fragment, Arabidopsis thaliana, UniProt Q42484 27-909, looked up)
chain: HKTDLRQAITDLETAIGDLKAIRDDLTLRIQQDGLEGRSCSNRAREWLSAVQVTETKTALLLVRFRRREQRTRMRRRYLSCFGCADYKLCKKVSAILKSIGELRERSEAIKTDGGSIQVTCREIPIKSVVGNTTMMEQVLEFLSEEEERGIIGVYGPGGVGKTTLMQSINNELITKGHQYDVLIWVQMSREFGECTIQQAVGARLGLSWDEKETGENRALKIYRALRQKRFLLLLDDVWEEIDLEKTGVPRPDRENKCKVMFTTRSIALCNNMGAEYKLRVEFLEKKHAWELFCSKVWRKDLLESSSIRRLAEIIVSKCGGLPLALITLGGAMAHRETEEEWIHASEVLTRFPAEMKGMNYVFALLKFSYDNLESDLLRSCFLYCALFPEEHSIEIEQLVEYWVGEGFLTSSHGVNTIYKGYFLIGDLKAACLLETGDEKTQVKMHNVVRSFALWMASEQGTYKELILVEPSMGHTEAPKAENWRQALVISLLDNRIQTLPEKLICPKLTTLMLQQNSSLKKIPTGFFMHMPVLRVLDLSFTSITEIPLSIKYLVELYHLSMSGTKISVLPQELGNLRKLKHLDLQRTQFLQTIPRDAICWLSKLEVLNLYYSYAGWELQSFGEDEAEELGFADLEYLENLTTLGITVLSLETLKTLFEFGALHKHIQHLHVEECNELLYFNLPSLTNHGRNLRRLSIKSCHDLEYLVTPADFENDWLPSLEVLTLHSLHNLTRVWGNSVSQDCLRNIRCINISHCNKLKNVSWVQKLPKLEVIELFDCREIEELISEHESPSVEDPTLFPSLKTLRTRDLPELNSILPSRFSFQKVETLVITNCPRVKKLPFQERRTQMNLPTVYCEEKWWKALEKDQPNEELCYLPRFVPN
stoichiometry N: 8
